Experimental data taken from patent US20220298218A1 (ANTAG THERAPEUTICS, published 2022).
*1 amine or outer side, *2 acyl side, *3 side chain or, on linkers, in order; H or OH if unused. Where no end group is shown, it is not given here. Side-chain parts run from the residue outwards. The star is where a group is joined. C18 diacid = O=C(O)CCCCCCCCCCCCCCCCC(=O)*; C16 diacid = O=C(O)CCCCCCCCCCCCCCC(=O)*; γGlu = O=C(O)[C@H](CCC(=O)[*:2])N[*:1]; AEEA = NCCOCCOCC(=O)O

T1: human GIP receptor (human, UniProt P48546 22-466)
T1 sequence (looked up): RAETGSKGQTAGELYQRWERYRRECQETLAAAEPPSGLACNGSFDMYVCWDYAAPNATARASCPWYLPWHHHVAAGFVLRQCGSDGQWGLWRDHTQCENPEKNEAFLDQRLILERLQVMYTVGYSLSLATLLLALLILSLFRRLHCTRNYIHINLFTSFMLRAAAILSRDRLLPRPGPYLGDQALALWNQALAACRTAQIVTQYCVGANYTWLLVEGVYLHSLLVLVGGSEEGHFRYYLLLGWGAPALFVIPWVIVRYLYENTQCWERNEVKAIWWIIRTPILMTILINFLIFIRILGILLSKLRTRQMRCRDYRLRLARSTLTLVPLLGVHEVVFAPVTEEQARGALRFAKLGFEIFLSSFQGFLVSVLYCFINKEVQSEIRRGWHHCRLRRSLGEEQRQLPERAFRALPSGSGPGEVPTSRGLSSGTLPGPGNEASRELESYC

B1: AT415 (peptide)
peptide: EGTFISDYSIAMDKIK([AEEA-AEEA-γGlu-C16 diacid])QQDFVNWLLAQKGKKNDW-OH
modifications: N-terminus assumed
SMILES: CC[C@H](C)[C@H](NC(=O)[C@H](CO)NC(=O)[C@H](Cc1ccc(O)cc1)NC(=O)[C@H](CC(=O)O)NC(=O)[C@H](CO)NC(=O)[C@@H](NC(=O)[C@H](Cc1ccccc1)NC(=O)[C@@H](NC(=O)CNC(=O)[C@@H](N)CCC(=O)O)[C@@H](C)O)[C@@H](C)CC)C(=O)N[C@@H](C)C(=O)N[C@@H](CCSC)C(=O)N[C@@H](CC(=O)O)C(=O)N[C@@H](CCCCN)C(=O)N[C@H](C(=O)N[C@@H](CCCCNC(=O)COCCOCCNC(=O)COCCOCCNC(=O)CC[C@H](NC(=O)CCCCCCCCCCCCCCC(=O)O)C(=O)O)C(=O)N[C@@H](CCC(N)=O)C(=O)N[C@@H](CCC(N)=O)C(=O)N[C@@H](CC(=O)O)C(=O)N[C@@H](Cc1ccccc1)C(=O)N[C@H](C(=O)N[C@@H](CC(N)=O)C(=O)N[C@@H](Cc1c[nH]c2ccccc12)C(=O)N[C@@H](CC(C)C)C(=O)N[C@@H](CC(C)C)C(=O)N[C@@H](C)C(=O)N[C@@H](CCC(N)=O)C(=O)N[C@@H](CCCCN)C(=O)NCC(=O)N[C@@H](CCCCN)C(=O)N[C@@H](CCCCN)C(=O)N[C@@H](CC(N)=O)C(=O)N[C@@H](CC(=O)O)C(=O)N[C@@H](Cc1c[nH]c2ccccc12)C(=O)O)C(C)C)[C@@H](C)CC
B2: AT471 (peptide)
peptide: EGTFISDYSIAMDKIK(C16 diacid)QQDFVNWLLAQKGPSSG-OH
modifications: N-terminus assumed
SMILES: CC[C@H](C)[C@H](NC(=O)[C@H](CO)NC(=O)[C@H](Cc1ccc(O)cc1)NC(=O)[C@H](CC(=O)O)NC(=O)[C@H](CO)NC(=O)[C@@H](NC(=O)[C@H](Cc1ccccc1)NC(=O)[C@@H](NC(=O)CNC(=O)[C@@H](N)CCC(=O)O)[C@@H](C)O)[C@@H](C)CC)C(=O)N[C@@H](C)C(=O)N[C@@H](CCSC)C(=O)N[C@@H](CC(=O)O)C(=O)N[C@@H](CCCCN)C(=O)N[C@H](C(=O)N[C@@H](CCCCNC(=O)CCCCCCCCCCCCCCC(=O)O)C(=O)N[C@@H](CCC(N)=O)C(=O)N[C@@H](CCC(N)=O)C(=O)N[C@@H](CC(=O)O)C(=O)N[C@@H](Cc1ccccc1)C(=O)N[C@H](C(=O)N[C@@H](CC(N)=O)C(=O)N[C@@H](Cc1c[nH]c2ccccc12)C(=O)N[C@@H](CC(C)C)C(=O)N[C@@H](CC(C)C)C(=O)N[C@@H](C)C(=O)N[C@@H](CCC(N)=O)C(=O)N[C@@H](CCCCN)C(=O)NCC(=O)N1CCC[C@H]1C(=O)N[C@@H](CO)C(=O)N[C@@H](CO)C(=O)NCC(=O)O)C(C)C)[C@@H](C)CC
B3: AT472 (peptide)
peptide: EGTFISDYSIAMDKIK(C16 diacid)QQDFVNWLLAQKGPSS-OH
modifications: N-terminus assumed
SMILES: CC[C@H](C)[C@H](NC(=O)[C@H](CO)NC(=O)[C@H](Cc1ccc(O)cc1)NC(=O)[C@H](CC(=O)O)NC(=O)[C@H](CO)NC(=O)[C@@H](NC(=O)[C@H](Cc1ccccc1)NC(=O)[C@@H](NC(=O)CNC(=O)[C@@H](N)CCC(=O)O)[C@@H](C)O)[C@@H](C)CC)C(=O)N[C@@H](C)C(=O)N[C@@H](CCSC)C(=O)N[C@@H](CC(=O)O)C(=O)N[C@@H](CCCCN)C(=O)N[C@H](C(=O)N[C@@H](CCCCNC(=O)CCCCCCCCCCCCCCC(=O)O)C(=O)N[C@@H](CCC(N)=O)C(=O)N[C@@H](CCC(N)=O)C(=O)N[C@@H](CC(=O)O)C(=O)N[C@@H](Cc1ccccc1)C(=O)N[C@H](C(=O)N[C@@H](CC(N)=O)C(=O)N[C@@H](Cc1c[nH]c2ccccc12)C(=O)N[C@@H](CC(C)C)C(=O)N[C@@H](CC(C)C)C(=O)N[C@@H](C)C(=O)N[C@@H](CCC(N)=O)C(=O)N[C@@H](CCCCN)C(=O)NCC(=O)N1CCC[C@H]1C(=O)N[C@@H](CO)C(=O)N[C@@H](CO)C(=O)O)C(C)C)[C@@H](C)CC
B4: AT438 (peptide)
peptide: SGTFISDYSIAMDKIK([AEEA-AEEA-AEEA-γGlu-C18 diacid])QQDFVNWLLAQKGPSSGAPPPS-OH
modifications: N-terminus assumed
SMILES: CC[C@H](C)[C@H](NC(=O)[C@H](CO)NC(=O)[C@H](Cc1ccc(O)cc1)NC(=O)[C@H](CC(=O)O)NC(=O)[C@H](CO)NC(=O)[C@@H](NC(=O)[C@H](Cc1ccccc1)NC(=O)[C@@H](NC(=O)CNC(=O)[C@@H](N)CO)[C@@H](C)O)[C@@H](C)CC)C(=O)N[C@@H](C)C(=O)N[C@@H](CCSC)C(=O)N[C@@H](CC(=O)O)C(=O)N[C@@H](CCCCN)C(=O)N[C@H](C(=O)N[C@@H](CCCCNC(=O)COCCOCCNC(=O)COCCOCCNC(=O)COCCOCCNC(=O)CC[C@H](NC(=O)CCCCCCCCCCCCCCCCC(=O)O)C(=O)O)C(=O)N[C@@H](CCC(N)=O)C(=O)N[C@@H](CCC(N)=O)C(=O)N[C@@H](CC(=O)O)C(=O)N[C@@H](Cc1ccccc1)C(=O)N[C@H](C(=O)N[C@@H](CC(N)=O)C(=O)N[C@@H](Cc1c[nH]c2ccccc12)C(=O)N[C@@H](CC(C)C)C(=O)N[C@@H](CC(C)C)C(=O)N[C@@H](C)C(=O)N[C@@H](CCC(N)=O)C(=O)N[C@@H](CCCCN)C(=O)NCC(=O)N1CCC[C@H]1C(=O)N[C@@H](CO)C(=O)N[C@@H](CO)C(=O)NCC(=O)N[C@@H](C)C(=O)N1CCC[C@H]1C(=O)N1CCC[C@H]1C(=O)N1CCC[C@H]1C(=O)N[C@@H](CO)C(=O)O)C(C)C)[C@@H](C)CC
B5: AT440 (peptide)
peptide: SGTFISDYSIAMDRIK([AEEA-AEEA-AEEA-γGlu-C16 diacid])QQDFVNWLLAQRGPSSGAPPPS-OH
modifications: N-terminus assumed
SMILES: CC[C@H](C)[C@H](NC(=O)[C@H](CO)NC(=O)[C@H](Cc1ccc(O)cc1)NC(=O)[C@H](CC(=O)O)NC(=O)[C@H](CO)NC(=O)[C@@H](NC(=O)[C@H](Cc1ccccc1)NC(=O)[C@@H](NC(=O)CNC(=O)[C@@H](N)CO)[C@@H](C)O)[C@@H](C)CC)C(=O)N[C@@H](C)C(=O)N[C@@H](CCSC)C(=O)N[C@@H](CC(=O)O)C(=O)N[C@@H](CCCNC(=N)N)C(=O)N[C@H](C(=O)N[C@@H](CCCCNC(=O)COCCOCCNC(=O)COCCOCCNC(=O)COCCOCCNC(=O)CC[C@H](NC(=O)CCCCCCCCCCCCCCC(=O)O)C(=O)O)C(=O)N[C@@H](CCC(N)=O)C(=O)N[C@@H](CCC(N)=O)C(=O)N[C@@H](CC(=O)O)C(=O)N[C@@H](Cc1ccccc1)C(=O)N[C@H](C(=O)N[C@@H](CC(N)=O)C(=O)N[C@@H](Cc1c[nH]c2ccccc12)C(=O)N[C@@H](CC(C)C)C(=O)N[C@@H](CC(C)C)C(=O)N[C@@H](C)C(=O)N[C@@H](CCC(N)=O)C(=O)N[C@@H](CCCNC(=N)N)C(=O)NCC(=O)N1CCC[C@H]1C(=O)N[C@@H](CO)C(=O)N[C@@H](CO)C(=O)NCC(=O)N[C@@H](C)C(=O)N1CCC[C@H]1C(=O)N1CCC[C@H]1C(=O)N1CCC[C@H]1C(=O)N[C@@H](CO)C(=O)O)C(C)C)[C@@H](C)CC
B6: AT442 (peptide)
peptide: SGTFISDYSIAMDRIK([AEEA-AEEA-AEEA-γGlu-C18 diacid])QQDFVNWLLAQRGPSSGAPPPS-OH
modifications: N-terminus assumed
SMILES: CC[C@H](C)[C@H](NC(=O)[C@H](CO)NC(=O)[C@H](Cc1ccc(O)cc1)NC(=O)[C@H](CC(=O)O)NC(=O)[C@H](CO)NC(=O)[C@@H](NC(=O)[C@H](Cc1ccccc1)NC(=O)[C@@H](NC(=O)CNC(=O)[C@@H](N)CO)[C@@H](C)O)[C@@H](C)CC)C(=O)N[C@@H](C)C(=O)N[C@@H](CCSC)C(=O)N[C@@H](CC(=O)O)C(=O)N[C@@H](CCCNC(=N)N)C(=O)N[C@H](C(=O)N[C@@H](CCCCNC(=O)COCCOCCNC(=O)COCCOCCNC(=O)COCCOCCNC(=O)CC[C@H](NC(=O)CCCCCCCCCCCCCCCCC(=O)O)C(=O)O)C(=O)N[C@@H](CCC(N)=O)C(=O)N[C@@H](CCC(N)=O)C(=O)N[C@@H](CC(=O)O)C(=O)N[C@@H](Cc1ccccc1)C(=O)N[C@H](C(=O)N[C@@H](CC(N)=O)C(=O)N[C@@H](Cc1c[nH]c2ccccc12)C(=O)N[C@@H](CC(C)C)C(=O)N[C@@H](CC(C)C)C(=O)N[C@@H](C)C(=O)N[C@@H](CCC(N)=O)C(=O)N[C@@H](CCCNC(=N)N)C(=O)NCC(=O)N1CCC[C@H]1C(=O)N[C@@H](CO)C(=O)N[C@@H](CO)C(=O)NCC(=O)N[C@@H](C)C(=O)N1CCC[C@H]1C(=O)N1CCC[C@H]1C(=O)N1CCC[C@H]1C(=O)N[C@@H](CO)C(=O)O)C(C)C)[C@@H](C)CC

biological target: T1, human GIP receptor; assay: cell-based or functional assay

Binder | cAMP agonism Emax | cAMP antagonism | cAMP antagonism % inhib | cAMP antagonism log
B1 | 4.6 | 55 nM | 87% | -7.3 log M
B2 |  | 11 nM | 100% | -7.9 log M
B3 |  | 15 nM | 100% | -7.8 log M
B4 |  | 54 nM | 100% | -7.3 log M
B5 |  | 103 nM | 100% | -7 log M
B6 |  | 26 nM | 77% | -7.6 log M

biological target: T1, human GIP receptor; assay: cell-based or functional assay; remark: another data set of the same source

Binder | cAMP agonism % Emax | cAMP antagonism | cAMP antagonism % inhib | cAMP antagonism pIC50
B1 | 0% | 13.6 nM | 87% | 7.9
B2 | 0% | 6.81 nM | 87% | 8.2
B3 | 0% | 7.94 nM | 90% | 8.1
